The first test concerns the target human IgG (human). As to the kind of experiment: BLI (Octet), gEgI on Ni-NTA sensor, hIgG in solution.
Take “HSV2-gE_R314G V340M_gI (from UniProt P89475 21-416; P06764 21-256) (receptor)”: the Kd came to 390 nM, the Response worked out at 0.466 nm, the koff worked out at 0.00401 s⁻¹ and the kon stood at 10300 M⁻¹ s⁻¹.

Turning to “HSV2-gE_R314L P318D_gI (from UniProt P89475 21-416; P06764 21-256) (receptor)”, the Kd is less than 0.001 nM, the Response was determined as 0.134 nm, the koff was less than 1e-07 s⁻¹ and the association rate constant (kon) worked out at 7900 M⁻¹ s⁻¹.

The substance “HSV2-gE_R314L V340W_gI (from UniProt P89475 21-416; P06764 21-256) (receptor)” returned a dissociation constant (Kd) of 914 nM, a Response of 0.148 nm, an off-rate constant (koff) of 0.00524 s⁻¹ and a kon of 5740 M⁻¹ s⁻¹.

The substance “HSV2-gE_P318R S338H_gI (from UniProt P89475 21-416; P06764 21-256) (receptor)” yielded a Kd of 5.32 nM, a Response of 0.192 nm, a koff of 4.28e-05 s⁻¹ and an association rate constant (kon) of 8050 M⁻¹ s⁻¹.

Substance “HSV2-gE_R314P F322A_gI (from UniProt P89475 21-416; P06764 21-256) (receptor)” yielded a Kd of 247 nM, a Response of 0.655 nm, a koff of 0.00423 s⁻¹ and a kon of 17100 M⁻¹ s⁻¹.

As for “HSV2-gE_P317S S338H_gI (from UniProt P89475 21-416; P06764 21-256) (receptor)”, the Kd was 154 nM, the Response worked out at 0.516 nm, the koff is 0.0021 s⁻¹ and the kon amounted to 13600 M⁻¹ s⁻¹.

Take “HSV2-gE_P317S V340R_gI (from UniProt P89475 21-416; P06764 21-256) (receptor)”: the Kd came to 277 nM, the Response is 0.403 nm, the koff was found to be 0.00191 s⁻¹ and the kon was 6890 M⁻¹ s⁻¹.

“HSV2-gE_P318I S338H_gI (from UniProt P89475 21-416; P06764 21-256) (receptor)” showed an equilibrium dissociation constant (Kd) of 286 nM, a Response of 0.252 nm, a koff of 0.0025 s⁻¹ and a kon of 8740 M⁻¹ s⁻¹.

For “HSV2-gE_P317K V340W_gI (from UniProt P89475 21-416; P06764 21-256) (receptor)”, the Kd turned out to be 517 nM, the Response amounted to 0.111 nm, the koff was 0.00348 s⁻¹ and the kon is 6740 M⁻¹ s⁻¹.

“HSV2-gE_R314L V340R_gI (from UniProt P89475 21-416; P06764 21-256) (receptor)” yielded a Kd of 615 nM, a Response of 0.284 nm, a koff of 0.00307 s⁻¹ and a kon of 4990 M⁻¹ s⁻¹.

The substance “HSV2-gE_R314G P318D_gI (from UniProt P89475 21-416; P06764 21-256) (receptor)” registered a Kd of 369 nM, a Response of 0.122 nm, a koff of 0.0033 s⁻¹ and a kon of 8930 M⁻¹ s⁻¹.

Take “HSV2-gE_P317K V340M_gI (from UniProt P89475 21-416; P06764 21-256) (receptor)”: the Kd came out at 297 nM, the Response came out at 0.238 nm, the off-rate constant (koff) amounted to 0.00199 s⁻¹ and the kon was 6690 M⁻¹ s⁻¹.

Substance “HSV2-gE_R314G F322I_gI (from UniProt P89475 21-416; P06764 21-256) (receptor)” registered a Kd of 272 nM, a Response of 0.291 nm, a koff of 0.00262 s⁻¹ and a kon of 9620 M⁻¹ s⁻¹.

Turning to “HSV2-gE_P319L V340M_gI (from UniProt P89475 21-416; P06764 21-256) (receptor)”, the Kd was 222 nM, the Response was 0.336 nm, the dissociation rate constant (koff) turned out to be 0.00216 s⁻¹ and the kon is 9750 M⁻¹ s⁻¹.

With “HSV2-gE_P317S S338G_gI (from UniProt P89475 21-416; P06764 21-256) (receptor)”, the Kd was found to be 302 nM, the Response was determined as 0.595 nm, the koff is 0.00453 s⁻¹ and the kon was found to be 15000 M⁻¹ s⁻¹.

Regarding “HSV2-gE_P317K S338H_gI (from UniProt P89475 21-416; P06764 21-256) (receptor)”, the Kd was 338 nM, the Response came to 0.146 nm, the koff came to 0.00195 s⁻¹ and the kon stood at 5780 M⁻¹ s⁻¹.

The next test has as its target human IgG (human). As to the kind of experiment: BLI Octet, construct on Ni-NTA sensor, hIgG in solution.
As for “HSV2-gE_H245G P319L_gI (from UniProt P89475 21-416; P06764 21-256) (receptor)”, the Kd stood at 327 nM, the Response (nm) was determined as 0.361 nm, the koff came to 0.00189 s⁻¹ and the kon is 5760 M⁻¹ s⁻¹.

On to “HSV2-gE_A248G_gI (from UniProt P89475 21-416; P06764 21-256) (receptor)”, for which the Kd is 560 nM, the Response (nm) is 0.506 nm, the koff was 0.00551 s⁻¹ and the kon came to 9840 M⁻¹ s⁻¹.

For the substance “HSV2-gE_A248K V340R_gI (from UniProt P89475 21-416; P06764 21-256) (receptor)”, the Kd was less than 0.001 nM, the Response (nm) was determined as 0.0449 nm, the koff is less than 1e-07 s⁻¹ and the kon worked out at 3040 M⁻¹ s⁻¹.

Substance “HSV2-gE_P317S_gI (from UniProt P89475 21-416; P06764 21-256) (receptor)” gave a Kd of 255 nM, a Response (nm) of 0.669 nm, a dissociation rate constant (koff) of 0.00358 s⁻¹ and an on-rate (kon) of 14000 M⁻¹ s⁻¹.

“HSV2-gE_H245K_gI (from UniProt P89475 21-416; P06764 21-256) (receptor)” yielded a Kd of 686 nM, a Response (nm) of 0.562 nm, a koff of 0.00614 s⁻¹ and a kon of 8960 M⁻¹ s⁻¹.

Substance “HSV2-gE_R320H_gI (from UniProt P89475 21-416; P06764 21-256) (receptor)” came in with a Kd of 4750 nM, a Response (nm) of 0.247 nm, a koff of 0.00421 s⁻¹ and a kon of 886 M⁻¹ s⁻¹.

Take “HSV2-gE_A248K F322I_gI (from UniProt P89475 21-416; P06764 21-256) (receptor)”: the Kd was 870 nM, the Response (nm) stood at 0.321 nm, the koff amounted to 0.00525 s⁻¹ and the kon is 6040 M⁻¹ s⁻¹.

“HSV2-gE_V340P_gI (from UniProt P89475 21-416; P06764 21-256) (receptor)” came in with a Kd of 321 nM, a Response (nm) of 0.566 nm, a koff of 0.00465 s⁻¹ and a kon of 14500 M⁻¹ s⁻¹.

Substance “HSV2-gE_H245Q_gI (from UniProt P89475 21-416; P06764 21-256) (receptor)” gave a Kd of 320 nM, a Response (nm) of 0.896 nm, a koff of 0.0048 s⁻¹ and a kon of 15000 M⁻¹ s⁻¹.

In turn, “HSV2-gE_P318D_gI (from UniProt P89475 21-416; P06764 21-256) (receptor)” yielded a Kd of less than 0.001 nM, a Response (nm) of 0.0995 nm, a koff of less than 1e-07 s⁻¹ and a kon of 5180 M⁻¹ s⁻¹.

The substance “HSV2-gE_R314E_gI (from UniProt P89475 21-416; P06764 21-256) (receptor)” gave a Kd of 1300 nM, a Response (nm) of 0.306 nm, a dissociation rate constant (koff) of 0.0058 s⁻¹ and an on-rate (kon) of 4470 M⁻¹ s⁻¹.

The record behind these values is patent US20220273789A1.
